Source: publication PMC6445127, “WNT5A is transported via lipoprotein particles in the cerebrospinal fluid to regulate hindbrain morphogenesis” (Nature Communications, 2019)

Target: T1, human native APOJ (human, UniProt P10909 23-227; P10909 228-449)
T1 construct: Apolipoprotein J (Clusterin), human, native; also called isolated APOJ protein; Clusterin; source: bought: Biovendor (RD162034025)
Assay: co-IP; in vitro protein binding assay: 2 μg human native APOJ incubated with 150 ng recombinant WNT5A in 200 μl binding buffer (50 mM Tris pH 7.6, 100 mM NaCl, 1 mM EDTA) overnight at 4 °C; precipitated with corresponding antibody or IgG on DynaBeads; washes with 0.5% NP40
Conditions: both partners purified

T1 sequence (P10909 23-227, chain 1 of 2): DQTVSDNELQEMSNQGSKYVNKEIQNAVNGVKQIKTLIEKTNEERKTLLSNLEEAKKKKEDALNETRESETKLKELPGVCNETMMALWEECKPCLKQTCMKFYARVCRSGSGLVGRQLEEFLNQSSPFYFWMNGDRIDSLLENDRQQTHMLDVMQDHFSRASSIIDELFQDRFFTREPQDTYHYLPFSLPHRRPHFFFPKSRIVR
T1 sequence (P10909 228-449, chain 2 of 2): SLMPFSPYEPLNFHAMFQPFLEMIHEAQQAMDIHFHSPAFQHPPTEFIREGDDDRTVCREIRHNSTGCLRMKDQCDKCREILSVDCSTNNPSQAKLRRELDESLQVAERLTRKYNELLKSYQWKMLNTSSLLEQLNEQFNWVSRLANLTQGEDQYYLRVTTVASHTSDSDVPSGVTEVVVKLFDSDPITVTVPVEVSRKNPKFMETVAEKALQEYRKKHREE

binding result: binds
B1: recombinant WNT5A (ligand, UniProt P22725 62-380, looked up)
chain: IIGAQPLCSQLAGLSQGQKKLCHLYQDHMQYIGEGAKTGIKECQYQFRHRRWNCSTVDNTSVFGRVMQIGSRETAFTYAVSAAGVVNAMSRACREGELSTCGCSRAARPKDLPRDWLWGGCGDNIDYGYRFAKEFVDARERERIHAKGSYESARILMNLHNNEAGRRTVYNLADVACKCHGVSGSCSLKTCWLQLADFRKVGDALKEKYDSAAAMRLNSRGKLVQVNSRFNSPTTQDLVYIDPSPDYCVRNESTGSLGTQGRLCNKTSEGMDGCELMCCGRGYDQFKTVQTERCHCKFHWCCYVKCKKCTEIVDQFVCK
notes: recombinant WNT5A, R&D Systems; 'P22725' is printed where a catalogue number would stand; elsewhere the catalogue number 645-WN-010 is printed; WNT5A'; also called rcWNT5A; rcWnt5a; source: bought: R&D Systems
